US7776563B2, “Methods for identifying agents for treating cardiovascular disease using inhibition of myeloperoxidase binding” (The Cleveland Clinic Foundation, priority 2004, dated 2010)
Ends that are not written are not given here.

Target: binding of human apoA-1 to isolated human MPO (Homo sapiens, UniProt P05164)
Experiment: Binding of human apoA-1 to plate-bound MPO in the presence of peptide
Settings: isolated human MPO bound to wells of a 96 well plate; apoA-1 binding determined in presence of peptide; FIG. 9
Description: Isolated human MPO was bound to the wells in a 96 well plate and then the binding of human apoA-1 to the MPO was determined in the presence of a peptide comprising the sequence N-Ac-(L) AEYHAKATEHLSTL, SEQ ID NO: 2 (also known as the L-ApoA-MPO peptide), a sequence comprising SEQ ID NO: 2 and D amino acids, also known as the D-apoA-MPO peptide, and a peptide comprising the sequence, N-Ac (L) KHETHSLAYAAET, SEQ ID NO: 4.

binding of human apoA-1 to isolated human MPO, sequence (P05164 279-745 limits assumed): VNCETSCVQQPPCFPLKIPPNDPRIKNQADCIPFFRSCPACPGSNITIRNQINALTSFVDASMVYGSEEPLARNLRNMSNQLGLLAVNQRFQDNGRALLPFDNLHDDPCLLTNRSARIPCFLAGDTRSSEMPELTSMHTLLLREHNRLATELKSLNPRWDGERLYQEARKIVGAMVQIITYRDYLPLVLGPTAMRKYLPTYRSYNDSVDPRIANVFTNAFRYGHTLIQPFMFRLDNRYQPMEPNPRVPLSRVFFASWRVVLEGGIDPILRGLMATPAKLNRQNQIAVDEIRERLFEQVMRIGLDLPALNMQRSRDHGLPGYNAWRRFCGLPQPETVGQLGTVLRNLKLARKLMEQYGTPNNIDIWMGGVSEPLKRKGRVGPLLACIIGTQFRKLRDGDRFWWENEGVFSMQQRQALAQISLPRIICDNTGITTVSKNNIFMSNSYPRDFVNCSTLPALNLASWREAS
binding of human apoA-1 to isolated human MPO, sequence (P05164 165-278 limits assumed): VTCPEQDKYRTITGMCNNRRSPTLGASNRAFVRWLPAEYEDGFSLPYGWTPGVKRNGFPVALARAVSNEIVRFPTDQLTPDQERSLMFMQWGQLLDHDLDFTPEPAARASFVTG

Substance | effect on binding of apo A-1 to MPO
D-apoA-MPO peptide: a sequence comprising SEQ ID NO: 2 (AEYHAKATEHLSTL) and D amino acids (also: D amino acids (positions not given here); listed as Homo sapiens) | inhibited binding of apo A-1 to MPO
N-Ac (L) KHETHSLAYAAET (Ac-KHETHSLAYAAET; listed as Homo sapiens) [SEQ ID NO: 4, reference compound] | had no effect on MPO-apoA-1 binding
N-Ac-(L) AEYHAKATEHLSTL (Ac-AEYHAKATEHLSTL; listed as Homo sapiens) [L-ApoA-MPO peptide] | inhibited binding of apo A-1 to MPO
